Measured values published in PMC9938897.
Values belong to the substance of their own block, whether it stands above or below them.

Experiments:
[1] = molecular target: CvkR (Alr3614) (Anabaena sp. PCC 7120) (UniProt A0ACD6B984); assay: DNase I footprinting; conditions: EMSA: 10 mM Tris-HCl pH 8.0, 25 mM MgCl2, 50 mM NaCl, 1 mM DTT, 1 mM EDTA, 50 ug/mL poly(dI-dC), 0.01% NP-40, 10% glycerol, 2 nM probe, 25 C 30 min …
[2] = molecular target: CvkR (Alr3614), MerR-type transcriptional regulator of the Anabaena sp. PCC 7120 CAST system, 150-residue form CvkR-S (Anabaena (Nostoc) sp. PCC 7120); assay: SEC; analytical gel filtration, Superdex 75 10/300 GL, 10 mM Tris-HCl pH 8.8, 100 mM NaCl, 2 mM beta-mercaptoethanol; ~500 uL untagged protein at ~0.6 mg/mL; calibrated with LMW standards; self-association (dimer)
[3] = molecular target: CvkR R42E (Anabaena (Nostoc) sp. PCC 7120); assay: as above
[4] = molecular target: CvkRmut (R19A-R20A-Q23A-K40A-R42A-N66A) (Anabaena (Nostoc) sp. PCC 7120); assay: as above

Chain of CvkR (Alr3614) (Anabaena sp. PCC 7120) (A0ACD6B984 entry or part of it): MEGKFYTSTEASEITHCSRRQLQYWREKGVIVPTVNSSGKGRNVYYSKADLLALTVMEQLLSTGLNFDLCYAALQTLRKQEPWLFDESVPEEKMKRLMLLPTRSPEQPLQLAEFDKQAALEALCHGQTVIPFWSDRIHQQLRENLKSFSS

Substance: AACTCCTTTCTCTCGCCAATACTGCAACTGGCGGCGAGAGCAATGAGTAATTTCTGATGCTTCTGTGCTTGTGTAGAACTTTCCTTCCATAAGAAACATCCTATAGAAGCATCTTCTAAAACACATTAGTGCTTTGTATAACATTATGTGTTTTGTATGGTATTTTATTTTTATGAGCCAAAAAACTATTCAATGTCGCTTAATTGCCAGTGAATCTACCCGCCAAAAACTCTGGAAGTTAATGGCAGAATCGAACACACCTCTAATTAACGAACTGCTTCAGCAGC (double strand) [Pcas12k footprint probe]
binding [1]: binds

stoichiometry N [2]: 2
Substance: CvkR (Alr3614), MerR-type transcriptional regulator of the Anabaena sp. PCC 7120 CAST system, 150-residue form CvkR-S (natural protein)

stoichiometry N [3]: 2
Substance: CvkR R42E (natural protein)

stoichiometry N [4]: 2
Substance: CvkRmut (R19A-R20A-Q23A-K40A-R42A-N66A) (natural protein)
